In assay [1] the test system is HCC70 triple negative breast cancer cells. Put plainly: IHC staining of FFPE HCC70 cells, wild-type vs BIM siRNA. It counts as cell-based, human. To be noted: for HSMCB IHC signal intensity: BIM-siRNA transfected HCC70 cells vs wild-type, FIG. 3. The source says: The MCL-1/BIM heterodimer antibody (HSMCB) requires BIM to bind in situ. BIM siRNA was used on both MCF-7 and HCC70 cells (far left, and right middle columns, respectively), and the cells were then formalin-fixed and paraffin embedded into a tissue microarray (TMA) block, sectioned and added to glass slides, and stained with HSMCB. IHC images of the wild-type (WT) staining for both MCF-7 and HCC70 cells are shown in the middle-left, and far right columns, respectively. […] The images across the top panel in FIG. 3 are of an HSMCB antibody having CDRs selected from SEQ ID NO: 9, SEQ ID NO: 10, SEQ ID NO: 11, SEQ ID NO: 12, SEQ ID NO: 13, SEQ ID NO: 14, and having a variable heavy chain selected from SEQ ID NO: 15, and a variable light chain selected from SEQ ID NO: 16; and the images across the bottom panel in FIG. 3 are of an HSMCB antibody having CDRs selected from SEQ ID NO: 1, SEQ ID NO: 2, SEQ ID NO: 3, SEQ ID NO: 4, SEQ ID NO: 5, SEQ ID NO: 6, and having a variable heavy chain selected from SEQ ID NO: 7, and a variable light chain selected from SEQ ID NO: 8.
In the far left panel. IHC images of the HSMCB antibody are shown for both WT HCC70 cells, and Bim-siRNA transfected HCC70 cells. In the middle panel. IHC images of the HSBXB antibody are shown for both WT HCC70 cells, and Bim-siRNA transfected HCC70 cells. In the far right panel. IHC images are shown of HCC70 cells without application of HSMCB or HSBXB. […] The images in the left column of FIG. 4 are of an HSMCB antibody having CDRs selected from SEQ ID NO: 9, SEQ ID NO: 10, SEQ ID NO: 11, SEQ ID NO: 12, SEQ ID NO: 13, SEQ ID NO: 14, and having a variable heavy chain selected from SEQ ID NO: 15, and a variable light chain selected from SEQ ID NO: 16.
The experiments of this example show a set of IHC images relating to the application of the Mcl-1/Bim heterodimer antibody (HSMCB) to formalin-fixed paraffin-embedded (FFPE) specimens from MCF-7 breast cancer cells, and HCC70 triple negative breast cancer cells. […]

Another assay has as its target T1, MCL-1/BIM heterodimer (Homo sapiens, UniProt Q07820).
T1 construct: mutated to delete their transmembrane domains; made in house; host or cells: E. coli BL21 (D3)
Put plainly: ELISA: Mcl-1-GST on glutathione-coated plates with or without Bim-BH3 peptide, detected with HSMCB antibody. It is filed as binding. To be noted: Mcl-1-GST with or without Bim-BH3 peptide, FIG. 1. As for the experimental part: Genes encoding human Mcl-1 were cloned and mutated to delete their transmembrane domains. The mutated genes were then linked to a nucleotide sequence encoding Glutathione-S-transferase (GST) and cloned into pGEX 4T-1 to obtain DNA constructs for expressing Mcl-1(Δ)-GST fusion proteins. DNA constructs for expressing full length human Bim, all fused with GST, were prepared by recombinant technology.
The plates were then washed three times with PBS containing 0.05% TWEEN 20™ (PBST) and blocked with 50 μl PBS containing 2.0% bovine serum albumin (BSA) at room temperature for 1 hour. The plates were then washed again three times with PBST. Afterwards, 100 μl of a hybridoma supernatant was added to designated wells. The plates were incubated at room temperature for 1 hour on a shaker apparatus and then washed three times with wash buffer. Next, 50 μl of HRP-conjugated goat anti-mouse IgG Fc (Cappel Laboratories), diluted 1:1000 in assay buffer (0.5% bovine serum albumin, 0.05% % TWEEN 20™, 0.01% Thimersol in PBS), was added to each well. […] 50 μl of […] was added to each well to stop the reaction and absorbance at 450 nm in each well is read in a microliter plate reader. […]
Background: An ELISA detects its analyte on a solid surface through an enzyme-linked reagent.

Another assay has as its target T2, Mcl-1 Bim-BH3 complex (Homo sapiens, UniProt Q07820).
T2 construct: mutated to delete their transmembrane domains; made in house; host or cells: E. coli BL21 (D3)
Put plainly: HSMCB on Mcl-1-Bim non-covalently bound beads. It is filed as binding. As to conditions: Bim-BH3 10 uM to 50 uM, FIG. 14.

T1 sequence (Q07820 1-327 limits assumed): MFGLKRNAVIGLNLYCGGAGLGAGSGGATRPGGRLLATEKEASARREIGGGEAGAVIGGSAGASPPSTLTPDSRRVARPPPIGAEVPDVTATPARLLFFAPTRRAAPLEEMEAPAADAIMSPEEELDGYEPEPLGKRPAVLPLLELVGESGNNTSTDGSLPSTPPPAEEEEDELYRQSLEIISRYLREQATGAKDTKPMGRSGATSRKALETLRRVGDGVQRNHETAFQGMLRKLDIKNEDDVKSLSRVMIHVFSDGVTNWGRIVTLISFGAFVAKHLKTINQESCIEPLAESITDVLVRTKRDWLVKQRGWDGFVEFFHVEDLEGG
T1 sequence (O43521 146-166 partner limits assumed): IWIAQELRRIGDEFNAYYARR
T2 sequence (Q07820 1-327 limits assumed): as the sequence (Q07820 1-327 limits assumed) above

B1: HSMCB (SEQ ID NO: 15, SEQ ID NO: 16): MCL-1/BIM heterodimer antibody, CDRs SEQ ID NO: 9-14, variable heavy chain SEQ ID NO: 15, variable light chain SEQ ID NO: 16 (antibody, V domains shown)
VH: MDWIWIMLHLLAAATGLQSQVHLQQSGSELRSPGSSVKLSCKDFDSEVFPIAYMSWVRQKPGHGFEWIGDILPSIGRTIYGEKFEDKATLDADTVSNTAYLELNSLTSEDSAIYYCARQDTYYAMDYWGQGTSVTVSS
VL: MHFQVQIFSFLLISASVIMSRGQIVLTQSPAIMSASPGEKVTITCSASSSVSYMHWVQQKPGTSPKLWIYSTSNLASGVPARFRGSGSGTSYSLTISRMEAEDAATYYCQQRSSYPYTFGGGTKLEIK
For the molecule B1, the “HSMCB IHC signal intensity” value in assay [1] is listed as “reduced HSMCB IHC signal intensity”. Further, the IHC activity entry in assay [1] (Bim-siRNA transfected HCC70 cells vs WT, FIG. 4) is listed as “reduced activity”. In addition, the “selective binding to the MCL-1/BIM heterodimer versus monomer” value in the assay with MCL-1/BIM heterodimer is “preferentially react with the heterodimer and not to the monomer”.

B2: HSMCB (SEQ ID NO: 7, SEQ ID NO: 8): MCL-1/BIM heterodimer antibody, CDRs SEQ ID NO: 1-6, variable heavy chain SEQ ID NO: 7, variable light chain SEQ ID NO: 8 (antibody, V domains shown)
VH: MNFGLSLIFLVLVLKGVQCEVQLVESGGDLVKPGGSLKLSCAVSGFTFSSYAMSWVRQTPAKRLEWVATISSGGFATYYPDTVKGRFTISRDNAKNTLYLQMSSLRSEDTAMYYCARHGGGSYGWFAYWGQGTLVTVSE
VL: MLSLAPLLSLLLLCVSDSRAETTVTQSPASLSVATGEKVTIRCITSTDIDDDMNWYQQKPGEPPKLLISEGNTLRPGVPSRFSSSGYGTDFVFTIENTLSEDFADYYCLQSDNMPYTFGGGTKLEIK
For B2, the “HSMCB IHC signal intensity” value in assay [1] is on record as “reduced HSMCB IHC signal intensity”. Also, in the assay with MCL-1/BIM heterodimer, the “selective binding to the MCL-1/BIM heterodimer versus monomer” value was “preferentially react with the heterodimer and not to the monomer”. In the assay with Mcl-1 Bim-BH3 complex, the “recognition of Mcl-1 Bim-BH3 complex on beads” value is “recognize the Mcl-1 Bim-BH3 complex at a significant level”.
